These results are taken from publication PMC10757996.

Experiment [1] concerns the target Arginylglycylaspartic acid (RGD) peptide grafted on poly-L-lysine-graft-poly(ethylene glycol) (PLL-g-PEG/PEG-RGD). The experiment can be described thus: SPR; Goos-Hänchen lateral position shift read-out on a silver-GST plasmonic substrate; PLL-PEG-RGD immobilised on the GST layer through MPTES; 10 μg/mL integrin proteoliposomes flowed over; running buffer 1:10 dilution of PBS; lowest Mn2+ concentration of the series (1 nM); exponential fits of association and dissociation. On the technique in general: SPR reads the build-up and loss of mass on a sensor chip optically.

For experiment [2] the target is unchanged. The experiment can be described thus: SPR; Goos-Hänchen lateral position shift read-out on a silver-GST plasmonic substrate; PLL-PEG-RGD immobilised on the GST layer through MPTES; 10 μg/mL integrin proteoliposomes flowed over; running buffer 1:10 dilution of PBS; highest Mn2+ concentration of the series (1 mM); exponential fits of association and dissociation.

One may read the koff as the first-order rate constant of dissociation.

On to “αIIbβ3 integrin reconstituted into liposomes (integrin-embedded proteoliposomes) (from UniProt P08514 32-1039; P05106 27-788) (complex)”, for which, in experiment [1], the kobs turned out to be 0.101 min⁻¹ and the koff worked out at 0.00957 s⁻¹. In addition, in experiment [2], the kobs was found to be 0.146 min⁻¹ and the koff amounted to 0.00448 s⁻¹.
